Experimental data reported in article PMC4985284, “Monochromatic multicomponent fluorescence sedimentation velocity for the study of high-affinity protein interactions” (eLife, 2016).
Where “and” joins values, the source holds several entries; their conditions need not be identical. Equal entries are not always repeated. Where two headings read alike, the source gives them in different places.

B1: fusion protein of GluA3-ATD and rsEGFP2 (rsEGFP2-GluA3) (domain or fragment, UniProt P19492 23-408, looked up)
chain: GFPNTISIGGLFMRNTVQEHSAFRFAVQLYNTNQNTTEKPFHLNYHVDHLDSSNSFSVTNAFCSQFSRGVYAIFGFYDQMSMNTLTSFCGALHTSFVTPSFPTDADVQFVIQMRPALKGAILSLLSYYKWEKFVYLYDTERGFSVLQAIMEAAVQNNWQVTARSVGNIKDVQEFRRIIEEMDRRQEKRYLIDCEVERINTILEQVVILGKHSRGYHYMLANLGFTDILLERVMHGGANITGFQIVNNENPMVQQFIQRWVRLDEREFPEAKNAPLKYTSALTHDAILVIAEAFRYLRRQRVDVSRRGSAGDCLANPAVPWSQGIDIERALKMVQVQGMTGNIQFDTYGRRTNYTIDVYEMKVSGSRKAGYWNEYERFVPFSDQQIS
modifications: native complex glycosylation
notes: GluA3 AMPA receptor amino-terminal domain, residues Gly23-Ser408; The fluorescent protein is the detection tag and is not written as a part; it is joined by SGSG (before) and SGS (after); The methods call the fluorescent protein rsEGFP, the results rsEGFP2; Cut with thrombin; also called rsEGFP-GluA3 ATD fusion construct; source: HEK293T, transient transfection, secreted, purified (HiTrap NTA, …)
B2: Dylight488-labeled GluA2-ATD (amino-terminal domain of the AMPA receptor GluA2) (domain or fragment, UniProt P19491 22-404, looked up)
chain: VSSNSIQIGGLFPRGADQEYSAFRVGMVQFSTSEFRLTPHIDNLEVANSFAVTNAFCSQFSRGVYAIFGFYDKKSVNTITSFCGTLHVSFITPSFPTDGTHPFVIQMRPDLKGALLSLIEYYQWDKFAYLYDSDRGLSTLQAVLDSAAEKKWQVTAINVGNINNDKKDETYRSLFQDLELKKERRVILDCERDKVNDIVDQVITIGKHVKGYHYIIANLGFTDGDLLKIQFGGANVSGFQIVDYDDSLVSKFIERWSTLEEKEYPGAHTATIKYTSALTYDAVQVMTEAFRNLRKQRIEISRRGNAGDCLANPAVPWGQGVEIERALKQVQVEGLSGNIKFDQNGKRINYTINIMELKTNGPRKIGYWSEVDKMVVTLTELPS
modifications: Dylight488 (N-hydroxysuccinimide ester-activated dye); native complex glycosylation
notes: signal peptide in the construct; secreted; Cut with thrombin after IMAC; also called DL488-GluA2; source: HEK293T, transient transfection, secreted, purified (HiTrap NTA, thrombin, HiTrap Q); labelled with Dylight488 and separated from free dye on Superdex 75; not shown: His8, C-terminal, cleaved

Experiments:
[1] = molecular target: GluA3 ATD (Rattus norvegicus) (UniProt P19492); conditions: cited from earlier work
[2] = molecular target: GluA2 ATD (Rattus norvegicus) (UniProt P19491); conditions: cited from earlier work
[3] = molecular target: GluA2 ATD (Rattus norvegicus) (UniProt P19491); conditions: cited from earlier work; remark: listed apart in the source
[4] = molecular target: GluA3 ATD (Rattus norvegicus) (UniProt P19492); conditions: cited from earlier work; remark: listed apart in the source
[5] = molecular target: B2; assay: AUC; MCMC FDS-SV, equimolar dilution series of DL488-GluA2 and rsEGFP2-GluA3 from 0.1-30 nM, 13 mW excitation beam, 50,000 rpm, 20°C; global fit of component sw isotherms with a linked homo- and hetero-dimerization model, K_(d,22) fixed at 27.1 nM; conditions: both partners purified
[6] = molecular target: B1; assay: AUC; FRAP-like FDS-SV, equimolar mixtures of rsEGFP2-GluA3 and DL488-GluA2, 20 min stationary 488 nm exposure at 6.5 cm before scanning, 50,000 rpm, 20°C; component sw isotherm with competitive homo- and hetero-dimerization model; conditions: both partners purified
[7] = molecular target: the molecule itself; assay: AUC; fluorescence-detected sedimentation velocity (FDS-SV), dilution series of DL488-GluA2 from 0.2 nM to 200 nM, 50,000 rpm, 20°C, 488 nm excitation; c(s) and sw isotherm with monomer-dimer model; dimer to monomers; 0.1 mg/ml unlabeled BSA added
[8] = molecular target: B1; assay: AUC; MCMC FDS-SV, equimolar dilution series of DL488-GluA2 and rsEGFP2-GluA3 from 0.1-30 nM, 13 mW excitation beam, 50,000 rpm, 20°C; global fit of component sw isotherms with a linked homo- and hetero-dimerization model, K_(d,22) fixed at 27.1 nM; conditions: both partners purified

Molecule: GluA3 ATD (from UniProt P19492)
Kd [1]: 5600 nM

Molecule: GluA2 ATD (from UniProt P19491)
Kd [2]: 1.8 nM
Kd [3]: 20.5 nM
Kd [4]: 1.3 nM

Molecule: B1
stoichiometry N [5]: 1

Molecule: B2
Kd [6]: 0.68 nM
Kd [7]: 24 nM and 27.1 nM
stoichiometry N [7]: 2
Kd [8]: 0.32 nM
